The target in assay [1] is Thyroid Stimulating Hormone (TSH) (UniProt P01215). As to the kind of experiment: FRET competition on Alexa488-labelled antigen; competitor BHQ-labelled 414B.
Assay [2] has the same target. Nature of the assay: FRET competition on Alexa488-labelled antigen; competitor BHQ-labelled T25C.
The target is the same in assay [3]. Nature of the assay: FRET competition on Alexa488-labelled antigen; competitor BHQ-labelled 5409.
For assay [4] the target is unchanged. Nature of the assay: i-STAT sandwich cartridge with TSH; capture beads M4, detection conjugate ME130.
For assay [5] the target is unchanged. Nature of the assay: FRET competition on Alexa488-labelled antigen; competitor BHQ-labelled M4.
For assay [6] the target is unchanged. As to the kind of experiment: FRET competition on Alexa488-labelled antigen; competitor BHQ-labelled ME130.
The target is the same in assay [7]. Nature of the assay: FRET competition on Alexa488-labelled antigen; competitor BHQ-labelled TSH Ab 544.
Assay [8] has the same target. Nature of the assay: i-STAT sandwich cartridge with TSH; capture beads M4, detection conjugate T25C.
The target is the same in assay [9]. Nature of the assay: i-STAT sandwich cartridge with TSH; capture beads M4, detection conjugate TSH Ab 544.
Assay [10] shares this target. As to the kind of experiment: i-STAT sandwich cartridge with TSH; capture beads M4, detection conjugate 5409.
For assay [11], the target named is Chorionic Gonadotropin (CG) (UniProt P01215). As to the kind of experiment: FRET quenching titration, BHQ-10 antibody and Alexa Fluor 488 antigen.
The target of assay [12] is Follicle Stimulating Hormone (FSH) (UniProt P01215). The assay is described as above.
The target in assay [13] is Thyroid Stimulating Hormone (TSH) (UniProt P01215). The description is as above.
Assay [14] addresses Luteinizing Hormone (LH) (UniProt P01215). The description is as above.
For assay [15], the target named is Follicle Stimulating Hormone (FSH) (UniProt P01215). Nature of the assay: i-STAT sandwich cartridge, 0.4 mIU/L TSH plus FSH, signal gain over TSH alone; capture 5409, detection ME130.
For assay [16], the target named is Chorionic Gonadotropin (CG) (UniProt P01215). Nature of the assay: i-STAT sandwich cartridge, 0.4 mIU/L TSH plus CG, signal gain over TSH alone; capture 5409, detection ME130.
For assay [17], the target named is Luteinizing Hormone (LH) (UniProt P01215). As to the kind of experiment: i-STAT sandwich cartridge, 0.4 mIU/L TSH plus LH, signal gain over TSH alone; capture 5409, detection T25C.
Assay [18] shares this target. Nature of the assay: i-STAT sandwich cartridge, 0.4 mIU/L TSH plus LH, signal gain over TSH alone; capture 5409, detection ME130.
The target in assay [19] is Chorionic Gonadotropin (CG) (UniProt P01215). Nature of the assay: i-STAT sandwich cartridge, 0.4 mIU/L TSH plus CG, signal gain over TSH alone; capture 5409, detection T25C.
The target in assay [20] is Follicle Stimulating Hormone (FSH) (UniProt P01215). As to the kind of experiment: i-STAT sandwich cartridge, 0.4 mIU/L TSH plus FSH, signal gain over TSH alone; capture 5409, detection T25C.
For assay [21], the target named is Thyroid Stimulating Hormone (TSH) (UniProt P01215). As to the kind of experiment: i-STAT sandwich cartridge with TSH; capture beads 5409, detection conjugate ME130.
For assay [22] the target is unchanged. Nature of the assay: i-STAT sandwich cartridge with TSH; capture beads 5409, detection conjugate M4.
Assay [23] has the same target. Nature of the assay: i-STAT sandwich cartridge with TSH; capture beads 5409, detection conjugate TSH Ab 544.
Assay [24] shares this target. Nature of the assay: i-STAT sandwich cartridge with TSH; capture beads 5409, detection conjugate T25C.
For assay [25] the target is unchanged. Nature of the assay: i-STAT sandwich cartridge with TSH; capture beads ME130, detection conjugate M4.
For assay [26] the target is unchanged. Nature of the assay: i-STAT sandwich cartridge with TSH; capture beads ME130, detection conjugate 5409.
Assay [27] has as its target Chorionic Gonadotropin (CG) (UniProt P01215). As to the kind of experiment: i-STAT sandwich cartridge, 0.4 mIU/L TSH plus CG, signal gain over TSH alone; capture ME130, detection 5409.
Assay [28] addresses Follicle Stimulating Hormone (FSH) (UniProt P01215). Nature of the assay: i-STAT sandwich cartridge, 0.4 mIU/L TSH plus FSH, signal gain over TSH alone; capture ME130, detection 5409.
In assay [29] the target is Thyroid Stimulating Hormone (TSH) (UniProt P01215). As to the kind of experiment: i-STAT sandwich cartridge with TSH; capture beads ME130, detection conjugate TSH Ab 544.
For assay [30] the target is unchanged. As to the kind of experiment: i-STAT sandwich cartridge with TSH; capture beads ME130, detection conjugate T25C.
Assay [31] deals with Luteinizing Hormone (LH) (UniProt P01215). Nature of the assay: i-STAT sandwich cartridge, 0.4 mIU/L TSH plus LH, signal gain over TSH alone; capture ME130, detection 5409.
The target is the same in assay [32]. Nature of the assay: i-STAT sandwich cartridge, 0.4 mIU/L TSH plus LH, signal gain over TSH alone; capture 414B, detection TSH Ab 544.
Assay [33] deals with Thyroid Stimulating Hormone (TSH) (UniProt P01215). Nature of the assay: i-STAT sandwich cartridge with TSH; capture beads 414B, detection conjugate M4.
In assay [34] the target is Luteinizing Hormone (LH) (UniProt P01215). As to the kind of experiment: i-STAT sandwich cartridge, 0.4 mIU/L TSH plus LH, signal gain over TSH alone; capture 414B, detection 5409.
Assay [35] deals with Thyroid Stimulating Hormone (TSH) (UniProt P01215). As to the kind of experiment: i-STAT sandwich cartridge with TSH; capture beads 414B, detection conjugate 5409.
Assay [36] concerns the target Follicle Stimulating Hormone (FSH) (UniProt P01215). As to the kind of experiment: i-STAT sandwich cartridge, 0.4 mIU/L TSH plus FSH, signal gain over TSH alone; capture 414B, detection 5409.
Assay [37] has the same target. As to the kind of experiment: i-STAT sandwich cartridge, 0.4 mIU/L TSH plus FSH, signal gain over TSH alone; capture 414B, detection TSH Ab 544.
Assay [38] has as its target Thyroid Stimulating Hormone (TSH) (UniProt P01215). Nature of the assay: i-STAT sandwich cartridge with TSH; capture beads 414B, detection conjugate TSH Ab 544.
Assay [39] concerns the target Chorionic Gonadotropin (CG) (UniProt P01215). Nature of the assay: i-STAT sandwich cartridge, 0.4 mIU/L TSH plus CG, signal gain over TSH alone; capture 414B, detection TSH Ab 544.
For assay [40] the target is unchanged. Nature of the assay: i-STAT sandwich cartridge, 0.4 mIU/L TSH plus CG, signal gain over TSH alone; capture 414B, detection 5409.
Assay [41] has as its target Thyroid Stimulating Hormone (TSH) (UniProt P01215). As to the kind of experiment: i-STAT sandwich cartridge with TSH; capture beads T25C, detection conjugate M4.
Assay [42] deals with Follicle Stimulating Hormone (FSH) (UniProt P01215). As to the kind of experiment: i-STAT sandwich cartridge, 0.4 mIU/L TSH plus FSH, signal gain over TSH alone; capture T25C, detection 5409.
Assay [43] concerns the target Thyroid Stimulating Hormone (TSH) (UniProt P01215). As to the kind of experiment: i-STAT sandwich cartridge with TSH; capture beads T25C, detection conjugate ME130.
Assay [44] has the same target. Nature of the assay: i-STAT sandwich cartridge with TSH; capture beads T25C, detection conjugate 5409.
Assay [45] has the same target. Nature of the assay: i-STAT sandwich cartridge with TSH; capture beads T25C, detection conjugate 414B.
The target of assay [46] is Luteinizing Hormone (LH) (UniProt P01215). Nature of the assay: i-STAT sandwich cartridge, 0.4 mIU/L TSH plus LH, signal gain over TSH alone; capture T25C, detection 5409.
In assay [47] the target is Chorionic Gonadotropin (CG) (UniProt P01215). As to the kind of experiment: i-STAT sandwich cartridge, 0.4 mIU/L TSH plus CG, signal gain over TSH alone; capture T25C, detection 5409.
Assay [48] has as its target Thyroid Stimulating Hormone (TSH) (UniProt P01215). Nature of the assay: i-STAT sandwich cartridge with TSH; capture beads T25C, detection conjugate TSH Ab 544.

A word on the Kd: it is a measure of binding affinity in units of concentration. A higher Kd goes with a looser complex. With “Fitzgerald 10C-CR2151M4 mouse monoclonal antibody”, the relative fluorescence in assay [1] came out at 0.9 normalized; in [2], 0.74 normalized; in assay [3] it was 0.94 normalized; in [5], 1 normalized; in [6], 0.76 normalized; in assay [7], 0.98 normalized. Moreover, the electrochemical current in assay [4] amounted to 39.9 nA; in assay [8] it was 22.5 nA; in assay [9], 0 nA; in assay [10] it was 20.7 nA. Moreover, the dissociation constant (Kd) in assay [11] came to 554 nM; in [12] it was 210 nM; in [13], 0.18 nM; with Luteinizing Hormone (LH) [14], 300 nM.

As to “TSH capture mouse monoclonal antibody Biospacific Cat#5409 SPTNE-5”, the relative fluorescence was 0.88 normalized in [1]; 0.78 normalized in assay [2]; 1 normalized in assay [3]; 0.9 normalized in assay [5]; 0.78 normalized in assay [6]; 0.93 normalized in [7]. Moreover, the figures for the FSH CR (%) in assay [15] and in [20] were 2.43% and 0.65%, respectively. The CG CR (%) in [16] worked out at 0.78%; in assay [19], 0.96%. Besides, the results for the LH CR (%) in the assay with Luteinizing Hormone (LH) [17] and with Luteinizing Hormone (LH) [18] were 3.76% and 10.1%, respectively. The electrochemical current was 53.6 nA in assay [21], 15.2 nA in [22], 1.41 nA in assay [23] and 34.6 nA in [24]. Also, the Kd is 500 nM in assay [11], 1000 nM in assay [12], 0.1 nM in [13] and 1000 nM with Luteinizing Hormone (LH) [14].

In the case of AbCAM ME-130 mouse monoclonal antibody, the electrochemical current is 50.5 nA in [25], 54.7 nA in [26], 10.8 nA in [29] and -0.1 nA in assay [30]. In addition, the relative fluorescence in assay [1] worked out at 0.99 normalized; in assay [2], 0.88 normalized; in [3] it was 0.82 normalized; in [5], 0.77 normalized; in assay [6], 1 normalized; in assay [7], 0.82 normalized. Besides, the CG CR (%) in [27] stood at 11.8%. In [28], the FSH CR (%) came to 3.9%. Also, the Kd in assay [11] turned out to be 45 nM; in [12], 70 nM; in assay [13], 0.04 nM; with Luteinizing Hormone (LH) [14], 54 nM. In the assay with Luteinizing Hormone (LH) [31], the LH CR (%) was determined as 11.1%.

On to “Seradyn anti-alpha-LH monoclonal antibody Cat#MIT0414B”, for which the relative fluorescence was 1 normalized in assay [1]; 0.76 normalized in assay [2]; 0.81 normalized in [3]; 0.75 normalized in assay [5]; 0.86 normalized in assay [6]; 0.83 normalized in assay [7]. For the same substance, the LH CR (%) with Luteinizing Hormone (LH) [32] came out at 467%; with Luteinizing Hormone (LH) [34], 348%. The electrochemical current is 41.3 nA in [33], 40.3 nA in [35] and 10.2 nA in assay [38]. Further, the values for the FSH CR (%) in assay [36] and in assay [37] were 260% and 219%, respectively. In addition, the values for the CG CR (%) in assay [39] and in assay [40] were 39.2% and 84.6%, respectively. Moreover, the Kd in [11] was 0.05 nM; in [12] it was 0.1 nM; in assay [13], 0.04 nM; in the assay with Luteinizing Hormone (LH) [14] it was 0.05 nM.

With “signaling mouse monoclonal antibody Fitzgerald Cat#10-T25C”, the electrochemical current is 40.9 nA in [41]; 0.68 nA in assay [43]; 49.7 nA in assay [44]; 0.82 nA in assay [45]; 0.83 nA in assay [48]. Moreover, the relative fluorescence in assay [1] amounted to 0.97 normalized; in [2], 1 normalized; in assay [3], 0.95 normalized; in [5], 0.92 normalized; in [6], 0.97 normalized; in [7], 0.97 normalized. Further, the FSH CR (%) in assay [42] was found to be 6.25%. Besides, the LH CR (%) in the assay with Luteinizing Hormone (LH) [46] is 9.89%. Also, the Kd in assay [11] turned out to be 40 nM; in assay [12] it was 300 nM; in assay [13] it was 0.08 nM; with Luteinizing Hormone (LH) [14], 35 nM. Moreover, in assay [47], the CG CR (%) was 13.7%.

The values are drawn from patent US9575076.
